Assay results reported in article PMC10556103, “Autoantibody binding and unique enzyme-substrate intermediate conformation of human transglutaminase 3” (Nature Communications, 2023).

How the values were obtained:
Test in all cases: crystal structure; TG3 form mixed with Fab DH63-B02 at 1:1.1 molar ratio, complex purified by SEC; crystals in 0.1 M HEPES-MOPS pH 7.1, 16-22% ethylene glycol, 8-11% PEG 8000, 6-10 mM CaCl2, 3-10 mM MgCl2; three Ca2+ bound
Conditions in all cases: both partners purified
[1] = biological target: T1, zymogen transglutaminase 3 (TG3), human recombinant (Homo sapiens, UniProt Q08188)
T1 construct: human transglutaminase 3, uncleaved zymogen (79 kDa), with N-terminal, catalytic core, C1 and C2 domains; the loop 461-473 is intact; also called TG3 zymogen; zymogen TG3; source: Sf9 insect cells, purified (Ni-NTA)
T1 sequence (Q08188 whole entry, the tested form may be a part): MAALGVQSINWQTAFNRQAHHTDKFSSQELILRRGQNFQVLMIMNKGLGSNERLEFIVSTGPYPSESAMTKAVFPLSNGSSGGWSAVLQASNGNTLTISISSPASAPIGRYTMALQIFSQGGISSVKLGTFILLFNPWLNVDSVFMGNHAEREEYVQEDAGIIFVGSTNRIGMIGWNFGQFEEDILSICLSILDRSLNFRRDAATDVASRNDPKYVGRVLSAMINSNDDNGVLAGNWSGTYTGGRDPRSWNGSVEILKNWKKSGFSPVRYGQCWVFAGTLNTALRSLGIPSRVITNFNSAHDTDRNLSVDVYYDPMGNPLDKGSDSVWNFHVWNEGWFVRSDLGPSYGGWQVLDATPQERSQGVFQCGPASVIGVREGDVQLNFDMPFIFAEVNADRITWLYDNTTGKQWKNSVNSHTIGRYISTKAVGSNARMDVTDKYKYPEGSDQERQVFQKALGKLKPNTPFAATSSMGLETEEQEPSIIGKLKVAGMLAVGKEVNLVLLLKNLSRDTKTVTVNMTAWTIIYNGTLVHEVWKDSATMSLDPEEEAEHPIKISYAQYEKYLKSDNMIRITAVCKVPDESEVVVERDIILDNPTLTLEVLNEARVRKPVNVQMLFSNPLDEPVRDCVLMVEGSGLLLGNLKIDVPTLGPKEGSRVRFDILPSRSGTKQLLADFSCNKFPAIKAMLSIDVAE

[2] = biological target: T2, dispase-cleaved TG3 (N-terminal and core domains with C1C2 non-covalently associated) (Homo sapiens, UniProt Q08188)
T2 construct: human transglutaminase 3, N-terminal and catalytic core domains (N-core, 51 kDa) left by dispase cleavage in the loop 461-473; human transglutaminase 3, the two C-terminal beta-barrel domains C1C2 (26 kDa) left by dispase cleavage in the loop 461-473; TG3 was His-tagged before cleavage; source: Sf9 insect cells, purified (Ni-NTA); cleaved with dispase I, SEC
T2 sequence (Q08188 whole entry, chain 1 of 2, the tested form may be a part): as the sequence (Q08188 whole entry, the tested form may be a part) above
T2 sequence (Q08188 whole entry, chain 2 of 2, the tested form may be a part): as the sequence (Q08188 whole entry, the tested form may be a part) above

[3] = biological target: T3, Z-DON-associated TG3 without C1C2 (enzyme-substrate intermediate conformer) (human, UniProt Q08188, Cys273 alkylated by Z-DON (Z-DON-Val-Pro-Leu-OMe))
T3 construct: human transglutaminase 3, N-terminal and catalytic core domains (N-core, 51 kDa) left by cleavage in the loop 461-473; TG3 was His-tagged before cleavage; The cleavage sites of dispase and cathepsin L may differ; also called cleaved TG3 + Z-DON; source: Sf9 insect cells, purified (Ni-NTA); cleaved with dispase I or cathepsin L, incubated with Z-DON, SEC
T3 sequence (Q08188 2-461): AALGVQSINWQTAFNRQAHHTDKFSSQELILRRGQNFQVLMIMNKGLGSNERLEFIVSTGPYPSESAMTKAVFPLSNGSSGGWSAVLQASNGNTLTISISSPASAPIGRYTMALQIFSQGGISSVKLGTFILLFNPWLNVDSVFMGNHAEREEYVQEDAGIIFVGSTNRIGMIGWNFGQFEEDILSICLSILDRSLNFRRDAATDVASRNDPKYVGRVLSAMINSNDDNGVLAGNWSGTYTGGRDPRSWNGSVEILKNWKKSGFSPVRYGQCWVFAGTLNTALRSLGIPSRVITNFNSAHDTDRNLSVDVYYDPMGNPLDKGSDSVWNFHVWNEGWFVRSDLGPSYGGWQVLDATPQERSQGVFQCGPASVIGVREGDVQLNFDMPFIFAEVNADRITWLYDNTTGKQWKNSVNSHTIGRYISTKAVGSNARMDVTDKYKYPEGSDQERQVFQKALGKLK

[4] = biological target: T4, N-terminal and core domains (N-core) of cleaved TG3 (Homo sapiens, UniProt Q08188)
T4 construct: human transglutaminase 3, N-terminal and catalytic core domains (N-core, 51 kDa) left by cleavage in the loop 461-473; also called catalytic core domain; catalytic domain; source: Sf9 insect cells, purified (Ni-NTA); cleaved with dispase I or cathepsin L, SEC
T4 sequence (Q08188 whole entry, the tested form may be a part): as the sequence (Q08188 whole entry, the tested form may be a part) above

binding result [1]: binds
binding result [2]: binds
binding result [3]: binds
binding result [4]: binds
B1: Fab fragment of the anti-TG3 antibody DH63-B02 (Fab, V domains shown)
VH: EVQLVESGGGLVQPGRSLRLSCTASGFTFDDYAMHWVRQAPGKGLEWVSRISWNSRSIAYADSVKGRFTISRDSAKNSLYLQMNSLRTEDTALYYCAKDHYLGSDSYGMDVWGQGTTVTVSS
VL: NFMLTQPHSVSESPGKTVTISCTRSSGSIDSNYVQWYQQRPGSAPTIVIHEDNQRPSGVPDRFSGSIDTSSNSASLTISGLKTEDEADYYCQSYDPSNVVFGGGTKLTVL
notes: Fab heavy chain of the human antibody DH63-B02 from a dermatitis herpetiformis patient; Fab light chain of DH63-B02, purified on a resin for human lambda light chains; also called Fab DH63-B02; the Fab
